Measured values as given in publication PMC2927601, “Molecular basis for defect in Alix-binding by alternatively spliced isoform of ALG-2 (ALG-2^ΔGF122) and structural roles of F122 in target recognition” (BMC Structural Biology, 2010).
Substitutions are numbered along the chain they refer to. Names and notes keep the numbering of the source.

B1: ALG-2^F122A, full-length recombinant (natural protein, human, UniProt O75340 1-191, looked up)
chain: MAAYSYRPGPGAGPGPAAGAALPDQSFLWNVFQRVDKDRSGVISDTELQQALSNGTWTPFNPVTVRSIISMFDRENKAGVNFSEFTGVWKYITDWQNVFRTYDRDNSGMIDKNELKQALSGAGYRLSDQFHDILIRKFDRQGRGQIAFDDFIQGCIVLQRLTDIFRRYDTDQDGWIQVSYEQYLSMVFSIV
notes: ALG-2, human, 191 residues, Phe122 substituted with Ala; PDB 2ZN8 is the wild-type full-length parent
B2: ALG-2^F122W, full-length recombinant (natural protein, human, UniProt O75340 1-191, looked up)
chain: B1 chain with A122W
notes: ALG-2, human, 191 residues, Phe122 substituted with Trp; PDB 2ZN8 is the wild-type full-length parent
B3: ALG-2^F122S, full-length recombinant (natural protein, human, UniProt O75340 1-191, looked up)
chain: B1 chain with A122S
notes: ALG-2, human, 191 residues, Phe122 substituted with Ser; PDB 2ZN8 is the wild-type full-length parent
B4: synthetic peptide of the ALG-2-binding site in Alix with N-terminal linker (peptide)
peptide: KGGSGGSQGPPYPTYPGYPGYSQ
notes: linker, printed in lower case; also called Alix ABS peptide; ABS oligopeptide; source: synthetic peptide (Biosynthesis Inc., USA)
B5: ALG-2^F122G, full-length recombinant (natural protein, human, UniProt O75340 1-191, looked up)
chain: B1 chain with A122G
notes: ALG-2, human, 191 residues, Phe122 substituted with Gly; PDB 2ZN8 is the wild-type full-length parent

Assays:
[1] = target: B4; assay: SPR; Biacore2000, 25°C; Alix ABS peptide immobilized on CM5 chip; ALG-2 proteins 100 nM in HBS-P (10 mM HEPES-NaOH pH 7.4, 150 mM NaCl, 0.005% P20) with 100 μM CaCl2, 20 μl/min, injected 180 s; resonance signal at 10 s before dissociation phase relative to WT; details: both partners purified
[2] = target: T1, ALG-2 (apoptosis-linked gene 2), wild type, full-length recombinant (human, UniProt O75340 1-191); assay: as above; details: both partners purified
T1 construct: ALG-2, human, 22-kDa protein of 191 amino acid residues; longer (major) isoform regarded as wild type; also called WT; wild-type ALG-2

Binder | relative binding capacity (% of WT resonance signal) [1] | binding result [2]
B1 | 240% | 
B2 | 36% | 
B3 | 89% | 
B4 |  | binds
B5 | 140% | 
